The text below walks through data of patent US20220041746A1 (Sanofi, published 2022).

“And” between values parts separate entries of the source, which are not always exact repeats. Identical values can stand only once. Like-named read-outs stand apart in the source and are kept apart here.

The target of test [1] is human CD28 (Cambridge Biologics LLC Cat 03-01-0303) (human, UniProt P10747 19-152). In words: ELISA on coated hCD28 IgG4. The procedure:
The binding properties of the purified antibodies were analyzed either using ELISA or SPR methods. For ELISA, corresponding antigens for each binding site in the trispecific binding protein were used to coat a 96-well Immuno Plate (Nunc 439454, Thermo Fisher Scientific) overnight at 4° C. using 2 μg/ml each antigen m PBS(pH7.4). The coated plate was blocked using 5% skim milk 12% BSA in PBS for one hour at RT, followed by washing with PBS+[…] three times (Aqua Max 400, Molecular Devices). Serial dilution of antibodies (trispecific and control Abs) were prepared and added onto the ELISA plates (100 μl/well in duplicate), incubated at RT for one hour, followed by washing 5 times with PBS+0.25% Tween 20.
The reaction was terminated by adding 50 μl 1M H₂SO₄, and OD₄₅₀ was measured using SpectraMax M5 (Molecular Devices) and analyzed using SoltMax Pro6.3 software (Molecular Devices). The final data was transferred to GraphPad Prism software (GraphPad Software, CA. USA), and plotted as shown. EC50 was calculated using the same software.
(In general: ELISA stands for enzyme-linked immunosorbent assay.)

For test [2], the target named is T1, human CD38 expressed on the cell surface (human, UniProt P28907 1-300).
T1 construct: whole, on cells; also called hCD38-expressing cells; huCD38
In words: flow cytometry on preB::300.19 cells. (In general: In flow cytometry, cells or beads pass a laser one at a time.)

In test [3] the target is T2, cynomolgus monkey CD38 expressed on the cell surface (cynomolgus monkey, UniProt Q5VAN0 1-301).
T2 construct: whole, on cells; also called cCD38-expressing cells
Put plainly: flow cytometry on preB::300.19 cells.

For test [4], the target named is T1, human CD38 expressed on the cell surface. In words: flow cytometry on PréB hCD38 cells. The protocol: (§1) The recombinant cell line was described by J. Deckket et al. 2014 Clin. Cancer Res 20:4574-4583. […] Antibody binding was evaluated after centrifugation and resuspension of cells by adding 200 μl/well PBS 1% BSA and read using Guava® easyCyte™ 8HT Flow Cytometry System. Apparent KD and EC50 values were estimated using BIOST®T-BINDING and BIOST®T-SPEED software, respectively.

Test [5] has the same target. In words: flow cytometry, 'Apparent KD value against rec. cells by FACS (nM)'; single value of the mid/low row, equal to the EC50 of the CD3mid protein in FIG. 6C. The procedure: as §1
Test [6] addresses T2, cynomolgus monkey CD38 expressed on the …. In words: flow cytometry on PréB cCD38 cells. The protocol: as §1
Test [7] has as its target T3, recombinant human CD38 (SPR of Example 4) (human, UniProt P28907 45-300, limits assumed). In words: SPR (column 'KD value against rec. protein by SPR (nM)'); first value of the pair, taken for CD3mid.
Test [8] concerns the target T3, recombinant human CD38 (SPR of Example …). In words: SPR; KD rounded to an integer; first value of the pair, taken for CD3mid. For orientation: Surface plasmon resonance follows binding to a sensor surface in real time, without labels.
Test [9] concerns the target human CD28 (SPR of Example 4) (human, UniProt P10747 19-152, limits assumed). The description is as above.
In test [10] the target is T1, human CD38 expressed on the cell surface. Put plainly: flow cytometry (FACS) on 300.19 PreB hCD38 cells. The procedure: (§2) The recombinant cell line was described by J. Deckket et al. 2014 Clin Cancer Res 20:4574-4583. […] Antibody binding was evaluated after centrifugation and resuspension of cells by adding 200 μL/well PBS 1% BSA and read using Guava® easvCyte™ 8HT Flow Cytometry System. Apparent KD and EC50 values were estimated using BIOST@T-BINDING and BIOST@T-SPEED software, respectively.

The target in test [11] is T4, CD38 isoform A (SEQ ID NO:1) (human, UniProt P28907 45-300).
T4 construct: also called huCD38 isoform A
Put plainly: ELISA, plate coated with the CD38 isoform. The procedure: (§3) 96-well plates were coated with either isoform at 0.5 μg/well in PBS and 100 μL/well of antibodies were added to the plate. The plate was incubated at 37° C. for 1 h and washed five times with PBS containing 0.05% Tween-20 (PBS-T). […] Following incubation at 37° C. for 1 h in darkness, plates were washed with PBS-T five times. Antibody binding w as visualized by adding TMB-H2O2 buffer and read at a wavelength of 450 nm. EC50 values were estimated using BIOST@T-SPEED software.

Test [12] has as its target T5, CD38 isoform E (SEQ ID NO:105) (human, UniProt P28907 45-195, limits assumed).
T5 construct: also called huCD38 isoform E
Put plainly: ELISA, plate coated with the CD38 isoform. The protocol:
as §3

Test [13] deals with T2, cynomolgus monkey CD38 expressed on the …. In words: flow cytometry (FACS) on 300.19 PreB cynoCD38 cells [Cont.]. The procedure: as §2
Test [14] addresses T6, hCD38-his (SEQ ID NO: 2) (human, UniProt P28907 45-300).
T6 construct: His-tagged soluble protein derived from isoform A; also called human CD38-histag; hCD38::Histag
In words: ELISA on hCD38::Histag.

The target of test [15] is T7, cCD38-his (SEQ ID NO: 4) (cynomolgus monkey, UniProt Q5VAN0 46-301).
T7 construct: His-tagged soluble protein; also called cyno CD38-histag; cynoCD38::Histag
In words: ELISA on cynoCD38::Histag [Cont.].

Test [16] concerns the target T7, cCD38-his (SEQ ID NO: 4). In words: ELISA (column ELISA EC50 nM, cyno).
For test [17], the target named is T1, human CD38 expressed on the cell surface. In words: flow cytometry on preB::300.19 cells, apparent KD. The protocol:
as §2

For test [18], the target named is T2, cynomolgus monkey CD38 expressed on the …. In words: flow cytometry on preB::300.19 cells, apparent KD. The procedure:
as §2

The target is the same in test [19]. In words: flow cytometry (column FACS EC50 nM, cyno). The procedure:
as §2

The target of test [20] is T6, hCD38-his (SEQ ID NO: 2). In words: ELISA (column ELISA EC50 nM, hu).
Test [21] has as its target T1, human CD38 expressed on the cell surface. In words: flow cytometry (column FACS EC50 nM, hu). The protocol: as §2
The target of test [22] is T7, cCD38-his (SEQ ID NO: 4). In words: SPR, mAb captured via anti-human Fc, soluble CD38-his injected. The protocol: (§4) The binding properties of the anti-huCD38 mabs were evaluated using a BIAcore 2000 (BIAcore Inc., Uppsala, Ni). […] The surface was regenerated between injections using 30 μL of 50 mM NaOH-1 M NaCl. Individual sensorgrams wore analyzed using BIAsimulation software.

The target of test [23] is T6, hCD38-his (SEQ ID NO: 2). The test is described as above. The protocol: as §4
In test [24] the target is T1, human CD38 expressed on the cell surface. In words: flow cytometry on preB::300.19 cells, apparent KD. The procedure: as §1
The source holds these as a separate data set.

The target of test [25] is T2, cynomolgus monkey CD38 expressed on the …. In words: flow cytometry on preB::300.19 cells, apparent KD. The procedure:
as §1
The source holds these as a separate data set.

In general, EC50 refers to the midpoint of the concentration-response curve. A word on the koff: it is the first-order rate constant of dissociation.

B1: Control CD38xCD3 antibody (bispecific antibody)
benchmark heavy chain 1 (binds CD38): EVQLVESGGGLVQPGGSLRLSCAASGFTFSYSWMNWVRQAPGKGLEWVSEINPQSSTINYATSVKGRFTISRDNSKNTLYLQMNSLRAEDTAVYYCARYGNWFPYWGQGTLVTVSSASTKGPSVFPLAPSSKSTSGGTAALGCLVKDYFPEPVTVSWNSGALTSGVHTFPAVLQSSGLYSLSSVVTVPSSSLGTQTYICNVNHKPSDTKVDKKVEPKSCDKTHTCPPCPAPPVAGPSVFLFPPKPKDTLMISRTPEVTCVVVDVKHEDPEVKFNWYVDGVEVHNAKTKPREEEYNSTYRVVSVLTVLHQDWLNGKEYKCKVSNKALPAPIEKTISKAKGQPREPQVYTLPPSREEMTKNQVSLTCDVSGFYPSDIAVEWESDGQPENNYKTTPPVLDSDGSFFLYSKLTVDKSRWEQGDVFSCSVMHEALHNHYTQKSLSLSPGK
benchmark heavy chain 2 (binds CD3): not shown
benchmark light chain (binds CD38): DIVMTQSPSSLSASVGDRVTITCRASQNVDTWVAWYQQKPGQSPKALIYSASYRYSGVPDRFTGSGSGTDFTLTISSLQPEDFATYFCQQYDSYPLTFGGGTKLEIKRTVAAPSVFIFPPSDEQLKSGTASVVCLLNNFYPREAKVQWKVDNALQSGNSQESVTEQDSKDSTYSLSSTLTLSKADYEKHKVYACEVTHQGLSSPVTKSFNRGEC
notes: also called benchmark control CD38×CD3 bispecific antibody
On to B1, for which the binding result in test [1] is “no binding (tested: 10^4 pM)”.

B2: CD38VH1×CD28cvn×CD3mid IgG4 (other)
VH 1: QVQLVQSGAEVVKPGASVKVSCKASGYTFTSYAMHWVKEAPGQRLEWIGYIYPGQGGTNYNQKFQGRATLTADTSASTAYMELSSLRSEDTAVYFCARTGGLRRAYFTYWGQGTLVTVSS
VL 1: DIVLTQSPATLSLSPGERATISCRASQSVSSYGQGFMHWYQQKPGQPPRLLIYGASSRATGIPARFSGSGSGTDFTLTISPLEPEDFAVYYCQQNKEDPWTFGGGTKLEIK
VH 2: QVQLQESGPGLVKPSQTLSLTCTVSGFSLSDYGVHWVRQPPGKGLEWLGVIWAGGGTNYNPSLKSRKTISKDTSKNQVSLKLSSVTAADTAVYYCARDKGYSYYYSMDYWGQGTTVTVSS
VL 2: DIVLTQSPASLAVSPGQRATITCRASESVEYYVTSLMQWYQQKPGQPPKLLIFAASNVESGVPARFSGSGSGTDFTLTINPVEANDVANYYCQQSRKVPYTFGQGTKLEIK
VH 3: QVQLVESGGGVVQPGRSLRLSCAASGFTFTKAWMHWVRQAPGKQLEWVAQIKDKSNSYATYYADSVKGRFTISRDDSKNTLYLQMNSLRAEDTAVYYCRGVYYALSPFDYWGQGTLVTVSS
VL 3: DIVMTQTPLSLSVTPGQPASISCKSSQSLVHNNANTYLSWYLQKPGQSPQSLIYKVSNRFSGVPDRFSGSGSGTDFTLKISRVEAEDVGVYYCGQGTQYPFTFGSGTKVEIK
notes: also called CD38VH1×CD28evn×CD3mid; CD38VH1 × CD28cyn × CD3mid IgG4
As for B2, the “fold lower apparent affinity than the parental mAb2 antibody” value in [2] stood at 9 fold; in [3] it was 7.5 fold. Besides, the EC50 was 4.4 nM and 0.663 µg/mL in [4]; 7.5 nM and 1.12 µg/mL in [6]. The Kd in [5] stood at 4.4 nM; in test [7], 4 nM; in [8], 4 nM; in [9], 18 nM.

B3: mAb2 (antibody, human IgG1, kappa, V domains shown)
VH: QVQLVQSGAEVVKPGASVKVSCKASGYTFTSYAMHWVKEAPGQRLEWIGYIYPGQGGTNYNQKFQGRATLTADTSASTAYMELSSLRSEDTAVYFCARTGGLRRAYFTYWGQGTLVTVSS
VL: DIVLTQSPATLSLSPGERATISCRASQSVSSYGQGFMHWYQQKPGQPPRLLIYGASSRATGIPARFSGSGSGTDFTLTISPLEPEDFAVYYCQQNKEDPWTFGGGTKLEIKR
notes: also called antiCD38_C2-CD38-1_VH1-VL1; CD38VH1
Consider B3, for which the EC50 in test [10] was 0.33 nM; in [11], 0.14 nM; in test [12], 0.1 nM; in test [13] it was 0.76 nM and 0.114 µg/mL; with hCD38-his (SEQ ID NO: 2) [14], 0.11 nM; in the test with cCD38-his (SEQ ID NO: 4) [15] it was 0.1 nM. Further, the EC50 with cCD38-his (SEQ ID NO: 4) [16] is 0.1 nM; in [4], 0.5 nM and 0.0694 µg/mL; in [19] it was 0.76 nM; with hCD38-his (SEQ ID NO: 2) [20] it was 0.11 nM; in [21], 0.33 nM; in [6] it was 1 nM and 0.147 µg/mL. Further, the Kd in [17] came out at 0.33 nM; in [18], 0.75 nM; with cCD38-his (SEQ ID NO: 4) [22], 3.44 nM; in the test with hCD38-his (SEQ ID NO: 2) [23], 0.332 nM; in test [24], 0.5 nM; in test [25], 1 nM. Also, the off-rate constant (koff) with cCD38-his (SEQ ID NO: 4) [22] worked out at 0.000784 s⁻¹; with hCD38-his (SEQ ID NO: 2) [23], 0.00039 s⁻¹.
